Changes are numbered by the printed parent chain.
B1: M3076 (bispecific antibody)
heavy: EVQLVESGGGLVQPGGSLRLSCAASGFTFSTYAMNWVRQAPGKGLEWVGRIRSKYNNYATYYADSVKGRFTISRDDSKNTLYLQMNSLRAEDTAVYYCVRHGNFGDSYVSWFAYWGQGTLVTVSSASTKGPSVFPLAPSSKSTSGGTAALGCLVKDYFPEPVTVSWNSGALTSGVHTFPAVLQSSGLYSLSSVVTVPSSSLGTQTYICNVNHKPSNTKVDKKVEPKSCGGGGSDIQMTQSPSSLSASVGDRVTITCRSSQSVYNNLLGWYQQKPGKAPKLLIYSASTLASGVPSRFSGSGSGTDFTLTISSLQPEDFATYYCQGTYYNGDWYYPFGCGTKVEIKGGGGSGGGGSGGGGSGGGGSQVQLVESGGGSVQPGRSLRLSCAASGFDFSTYGVSWVRQAPGKCLEWIGYIDPVYGSTHYADSVKGRFTISRDNSKNTLYLQMNSLRAEDTASYYCVRDLYAGSSGYYMIYSLWGQGTSVTVSS
light: QAVVTQEPSLTVSPGGTVTLTCGSSTGAVTTSNYANWVQQKPGKSPRGLIGGTNKRAPGVPARFSGSLLGGKAALTISGAQPEDEADYYCALWYSNHWVFGGGTKLTVLGQPKAAPSVTLFPPSSEELQANKATLVCLISDFYPGAVTVAWKADSSPVKAGVETTTPSKQSNNKYAASSYLSLTPEQWKSHRSYSCQVTHEGSTVEKTVAPTECS
notes: Humanized variant of M2638, monovalent Fab-scFv; bivalent equivalent is M3167
B2: M3287 (bispecific antibody)
heavy: B1 heavy with F317S, N328T, M473V
light: B1 light
notes: Humanized variant of M2638, monovalent Fab-scFv; bivalent equivalent is M3292

What was measured:
Experiment in all cases: SPR (Biacore 8K), pMHC captured, Fab-scFv analyte
[1] = biological target: T1, HLA-A*02:01/PRAME antigen (recombinant, … on HLA-A*02:01) (human, Complex biotinylated for SPR capture; site of biotin and any tag not stated, not in the letters.)
T1 construct: also called PRAME target; pMHC
Description: (§1) Recombinantly produced hits in Fab-scFv format, as described in Example 4, were evaluated for their ability to bind HLA-A*02:01/PRAME antigen. Binding characterization was performed by surface plasmon resonance (SPR) using a Biacore™ 8k (Cytiva) device. Briefly, 3000 RU of Biotin CAPture reagent (Cytiva) was immobilized on a Series S Sensor Chip CAP (Cytiva) and the biotinylated ligand HLA-A*02:01/PRAME (SEQ ID NO: 68) was diluted in HPS-EP+ running buffer (TEKNOVA) and captured for 300 s at a flow rate of 2 μL/min at flow cell 2 resulting in a ligand capture level of >100 RU. Subsequently, at least three consecutive analyte injections were performed at suitable concentrations applying the single-cycle-kinetics mode at a flow rate of 30 μL/min with an association time of 90 s and the dissociation time set to >400 s. The chip surface was regenerated according to the manufacturer's instructions. After reference flow cell signal and blank injections subtraction, the data was fit to a 1:1 Langmuir binding model to determine the association rate constant kₐ and dissociation rate constant kd and calculate the equilibrium dissociation constant KD (kd/kₐ), also denoted as affinity, using the Biacore™ Insight Evaluation software.
(§2) The molecular recognition profile of monovalent (Fab-scFv) antigen binding molecules M3076 and M3287 for HLA-A*02:01/PRAME binding (equivalent bivalent (Fab-(scFv)₂) antigen binding molecules are M3167 and M3292, respectively) were determined by SPR measurements with HLA-A*02:01 complexes loaded with PRAME peptide or peptides containing a single amino acid substitution to alanine, arginine or aspartic acid. The kinetic parameters for each HLA-A*02:01 complex loaded with a peptide was determined by SPR, according to the previously described method in Example 5.

[2] = biological target: HLA-A*02:01 loaded with PRAME peptide S1R (human, Non-covalent three-chain complex; biotinylated for capture on the chip, site or tag of biotinylation not stated.)
Description: as §1, §2

[3] = biological target: HLA-A*02:01 loaded with PRAME peptide L2R (human, Non-covalent three-chain complex; biotinylated for capture on the chip, site or tag of biotinylation not stated.)
Description: as §1, §2

[4] = biological target: HLA-A*02:01 loaded with PRAME peptide L3R (human, Non-covalent three-chain complex; biotinylated for capture on the chip, site or tag of biotinylation not stated.)
Description: as §1, §2

[5] = biological target: HLA-A*02:01 loaded with PRAME peptide Q4R (human, Non-covalent three-chain complex; biotinylated for capture on the chip, site or tag of biotinylation not stated.)
Description: as §1, §2

[6] = biological target: HLA-A*02:01 loaded with PRAME peptide H5R (human, Non-covalent three-chain complex; biotinylated for capture on the chip, site or tag of biotinylation not stated.)
Description: as §1, §2

[7] = biological target: HLA-A*02:01 loaded with PRAME peptide L6R (human, Non-covalent three-chain complex; biotinylated for capture on the chip, site or tag of biotinylation not stated.)
Description: as §1, §2

[8] = biological target: HLA-A*02:01 loaded with PRAME peptide I7R (human, pMHC ligand was biotinylated for capture (Example 5); site or tag of biotinylation not disclosed)
Description: as §1, §2

[9] = biological target: HLA-A*02:01 loaded with PRAME peptide G8R (human, pMHC ligand was biotinylated for capture (Example 5); site or tag of biotinylation not disclosed)
Description: as §1, §2

[10] = biological target: HLA-A*02:01 loaded with PRAME peptide L9R (human, pMHC ligand was biotinylated for capture (Example 5); site or tag of biotinylation not disclosed)
Description: as §1, §2

[11] = biological target: HLA-A*02:01 loaded with PRAME peptide S1D (human, pMHC ligand was biotinylated for capture (Example 5); site or tag of biotinylation not disclosed)
Description: as §1, §2

[12] = biological target: HLA-A*02:01 loaded with PRAME peptide Q4D (human, pMHC ligand was biotinylated for capture (Example 5); site or tag of biotinylation not disclosed)
Description: as §1, §2

[13] = biological target: HLA-A*02:01 loaded with PRAME peptide L6D (human, Complex was biotinylated for capture on the SPR chip; site or tag of biotinylation not disclosed and not in the letters.)
Description: as §1, §2

[14] = biological target: HLA-A*02:01 loaded with PRAME peptide L9D (human, Complex was biotinylated for capture on the SPR chip; site or tag of biotinylation not disclosed and not in the letters.)
Description: as §1, §2

| Binder | Kd [1] | Kd [2] | Kd [3] | Kd [4] | Kd [5] | Kd [6] | binding result [7] | Kd [8] | binding result [9] | Kd [10] | Kd [11] | Kd [12] | binding result [13] | Kd [14] | binding result [6] |
| --- | --- | --- | --- | --- | --- | --- | --- | --- | --- | --- | --- | --- | --- | --- | --- |
| B1 | 0.08 nM | 0.08 nM | 0.04 nM | 1 nM | 0.08 nM | 93 nM | no binding | 18 nM | no binding | 1.4 nM | 0.06 nM | 0.34 nM | no binding | 0.83 nM | – |
| B2 | 0.57 nM | 0.57 nM | 0.31 nM | 9.2 nM | 0.49 nM | – | no binding | 83 nM | no binding | 6.1 nM | 0.53 nM | 3.4 nM | no binding | 2.7 nM | no binding |

Source: patent publication US20250333514A1 (CDR LIFE, published 2025)
